According to patent US20210253718A1, “FRIZZLED5 PROTEIN-BINDING AGENTS” (Modmab Therapeutics Corporation, priority 2016, published 2021):

T1: FZD8 CRD (Homo sapiens, UniProt Q9H461)
T1 construct: K31-D155; GPI anchor signal (C); expressed in transfected cells; host or cells: CHO cells, lentiviral pLenti-puro
T1 sequence (Q9H461 31-155): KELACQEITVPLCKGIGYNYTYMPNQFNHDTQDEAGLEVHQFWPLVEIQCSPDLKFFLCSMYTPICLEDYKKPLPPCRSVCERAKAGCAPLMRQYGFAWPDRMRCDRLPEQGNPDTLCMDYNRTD

T2: FZD3 CRD (Homo sapiens, UniProt Q9NPG1)
T2 construct: CRD of FZD1, FZD2, FZD3, FZD4, FZD5, FZD6, FZD7, FZD8, FZD9 or FZD10; GPI anchor signal (C); expressed in transfected cells; host or cells: CHO cells, lentiviral pLenti-puro
T2 sequence (Q9NPG1 23-136 limits assumed): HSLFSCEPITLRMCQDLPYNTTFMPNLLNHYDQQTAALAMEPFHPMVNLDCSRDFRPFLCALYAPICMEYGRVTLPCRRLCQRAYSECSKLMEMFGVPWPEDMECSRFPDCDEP

T3: FZD6 CRD (Homo sapiens, UniProt O60353)
T3 construct: S20-P146; GPI anchor signal (C); expressed in transfected cells; host or cells: CHO cells, lentiviral pLenti-puro
T3 sequence (O60353 20-146): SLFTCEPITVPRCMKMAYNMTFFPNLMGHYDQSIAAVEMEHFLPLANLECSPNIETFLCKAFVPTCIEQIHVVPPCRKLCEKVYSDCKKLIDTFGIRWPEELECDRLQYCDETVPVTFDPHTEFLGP

T4: FZD10 CRD (Homo sapiens, UniProt Q9ULW2)
T4 construct: 30-156; GPI anchor signal (C); expressed in transfected cells; host or cells: CHO cells, lentiviral pLenti-puro
T4 sequence (Q9ULW2 30-156): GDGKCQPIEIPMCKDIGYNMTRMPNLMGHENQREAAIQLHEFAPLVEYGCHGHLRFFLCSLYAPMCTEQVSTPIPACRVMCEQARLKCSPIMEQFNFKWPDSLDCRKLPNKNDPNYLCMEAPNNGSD

T5: FZD4 CRD (Homo sapiens, UniProt Q9ULV1)
T5 construct: E42-V167; GPI anchor signal (C); expressed in transfected cells; host or cells: CHO cells, lentiviral pLenti-puro
T5 sequence (Q9ULV1 42-167): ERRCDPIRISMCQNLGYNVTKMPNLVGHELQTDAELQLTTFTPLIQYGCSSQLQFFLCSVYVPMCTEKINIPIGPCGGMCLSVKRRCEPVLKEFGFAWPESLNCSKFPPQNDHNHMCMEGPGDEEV


Columns and labels:
ASPC-1 cells = assay: Effect of anti-FZD5 Fabs on proliferation of pancreatic cancer cell lines (percent growth inhibition); format: cell-based, human; details: Fab 2 μg/ml
RWP1 cells = assay: as above; format: cell-based, human; details: Fab 2 μg/ml
FZD7 CRD = molecular target: T6, FZD7 CRD (Homo sapiens, UniProt O75084); assay: Immunofluorescence of anti-FZD5 Fab binding to CHO cells overexpressing Frizzled CRD; parameters: key: −: no binding; +: very weak binder; ++: weak binder; +++: good binder; ++++: very good binder
T6 construct: D45-S169; GPI anchor signal (C); expressed in transfected cells; host or cells: CHO cells, lentiviral pLenti-puro
Procedure: (§1) Plasmids: pLCKO lentiviral vector used for knockout (TKO) library construction and expression of individual gRNAs was constructed as described previously (Hart et al., 2015). Briefly, single guide RNA (sgRNA) scaffold was amplified from px330 (Addgene 42230) and cloned into pLKO.TRC005 lentiviral vector (Broad Institute, Cambridge, Mass.) using AgeI/EcoRI restriction sites. BfuAI sites were added at the 5′ end of the sgRNA scaffold for cloning the TKO library or individual gRNA target sequences. Lenti Cas9-2A-BsdR vector used to generate Cas9 stable expression cell lines was constructed as described previously (Hart et al., 2015). Briefly, lentiCRISPR pXPR_001 (Addgene 49535) was modified through removal of the sgRNA scaffold region through NdeI/EcoRI digest and blunt ends generation using Large Klenow Fragment (NEB). 2A-puro was replaced with 2A-BsdR by PCR using the NheI/MluI sites. Each of the 10 human Frizzled cysteine rich domains (CRDs) were cloned into the lentiviral expression plasmid pLenti-puro in the following cassette: FZD_CRD-MYC-GPI.
(§2) To confirm that the FZD5-WNT7B circuit is not driven simply by expression and rule out the possibility of a disconnect between RNA and protein levels for the Wnt receptors in HPAF-II cells, a panel of recombinant Fabs were generated, alternatively referred to herein as ‘Frizzled profiler’, that can detect and discriminate all but one of the ten Frizzled receptors. […] To characterize the binding specificity of these Fabs on cells, a panel of 10 CHO cell lines was generated, each expressing the CRD domain of a different myc-tagged Frizzled family member anchored at the plasma membrane through a GPI anchor (CHO-myc-FZDGPI). Despite the high sequence identity between Frizzled family members (FIG. 7A, FIG. 7B), selective Fabs were identified for FZD4, FZD5, FZD6 and FZD10 as assessed by immunofluorescence and flow cytometry (FIG. 7D and FIG. 8). […] The FZD8 CRD is most homologous to that of FZD5 (FIG. 7B). These Fabs can be used to discriminate expression of FZD1, FZD2, FZD4, FZD5, FZD6, FZD7, FZD8, FZD9 and FZD10 (FIG. 7D and FIG. 8). The ‘Frizzled profiler’ therefore consists of 10 different Fabs that can be used to discriminate expression of 9 different Frizzled family members. The Frizzled profiler was then used to confirm that HPAF-II cells express FZD1, FZD5, FZD6 and possibly FZD8 (FIG. 7E).
(§3) The binding of anti-FZD5 Fabs to cell surface-expressed Frizzled protein was further determined for each member of the Frizzled family via flow cytometry and immunofluorescence analysis of a panel of 10 CHO cell lines, each ectopically over-expressing the extracellular cysteine-rich domain (CRD) of a different Frizzled protein family member.

FZD8 CRD = molecular target: T1, FZD8 CRD; assay: as above; parameters: key: −: no binding; +: very weak binder; ++: weak binder; +++: good binder; ++++: very good binder
Procedure: as §1, §2, §3

FZD3 CRD = molecular target: T2, FZD3 CRD; assay: as above; parameters: key: −: no binding; +: very weak binder; ++: weak binder; +++: good binder; ++++: very good binder
Procedure: as §1, §2, §3

FZD6 CRD = molecular target: T3, FZD6 CRD; assay: as above; parameters: key: −: no binding; +: very weak binder; ++: weak binder; +++: good binder; ++++: very good binder
Procedure: as §1, §2, §3

FZD2 CRD = molecular target: T7, FZD2 CRD (Homo sapiens, UniProt Q14332); assay: as above; parameters: key: −: no binding; +: very weak binder; ++: weak binder; +++: good binder; ++++: very good binder
T7 construct: D35-P161; GPI anchor signal (C); expressed in transfected cells; host or cells: CHO cells, lentiviral pLenti-puro
Procedure: as §1, §2, §3

FZD10 CRD = molecular target: T4, FZD10 CRD; assay: as above; parameters: key: −: no binding; +: very weak binder; ++: weak binder; +++: good binder; ++++: very good binder
Procedure: as §1, §2, §3

FZD4 CRD = molecular target: T5, FZD4 CRD; assay: as above; parameters: key: −: no binding; +: very weak binder; ++: weak binder; +++: good binder; ++++: very good binder
Procedure: as §1, §2, §3

Immunofluorescence binding, Frizzled CRD overexpressed on CHO cells: FZD7 (FZD7 CRD) | Immunofluorescence binding, Frizzled CRD overexpressed on CHO cells: FZD8 (FZD8 CRD) | Immunofluorescence binding, Frizzled CRD overexpressed on CHO cells: FZD3 (FZD3 CRD) | Immunofluorescence binding, Frizzled CRD overexpressed on CHO cells: FZD6 (FZD6 CRD) | Immunofluorescence binding, Frizzled CRD overexpressed on CHO cells: FZD2 (FZD2 CRD) | Immunofluorescence binding, Frizzled CRD overexpressed on CHO cells: FZD10 (FZD10 CRD) | Immunofluorescence binding, Frizzled CRD overexpressed on CHO cells: FZD4 (FZD4 CRD) | Molecule | percent growth inhibition, ASPC-1 2 μg/ml (ASPC-1 cells) [%] | percent growth inhibition, RWP1 2 μg/ml (RWP1 cells) [%]
+ | − | − | − | − | − | − | Fab-2905: anti-FZD5 Fab with antibody variable region Fv-2905; CDR SEQ ID NOs: 35, 36, 44, 83, 120, 157 (antibody, V domains shown) VH: EVQLVESGGGLVQPGGSLRLSCAASGFNLSYYYMHWVRQAPGKGLEWVASIYSSYSYTSYADSVKGRFTISADTSKNTAYLQMNSLRAEDTAVYYCARSGYALDYWGQGTLVTVSS VL: DIQMTQSPSSLSASVGDRVTITCRASQSVSSAVAWYQQKPGKAPKLLIYSASSLYSGVPSRFSGSRSGTDFTLTISSLQPEDFATYYCQQSSWYYGYPFTFGQGTKVEIK | −14.51 | 62.88
+ | + | − | − | − | +++ | − | Fab-2906: anti-FZD5 Fab with antibody variable region Fv-2906; CDR SEQ ID NOs: 35, 36, 45, 84, 121, 158 (antibody, V domains shown) VH: EVQLVESGGGLVQPGGSLRLSCAASGFNFSSSSIHWVRQAPGKGLEWVAYISSSYGYTYYADSVKGRFTISADTSKNTAYLQMNSLRAEDTAVYYCARTVRGSKKPYFSGWAMDYWGQGTLVTVSS VL: DIQMTQSPSSLSASVGDRVTITCRASQSVSSAVAWYQQKPGKAPKLLIYSASSLYSGVPSRFSGSRSGTDFTLTISSLQPEDFATYYCQQWSWGFLITFGQGTKVEIK | 20.56 | 1.19
+ | ++ | − | − | − | − | − | Fab-2902: anti-FZD5 Fab with antibody variable region Fv-2902; CDR SEQ ID NOs: 35, 36, 41, 80, 117, 153 (antibody, V domains shown) VH: EVQLVESGGGLVQPGGSLRLSCAASGFNISYYYIHWVRQAPGKGLEWVASISSSSSSTSYADSVKGRFTISADTSKNTAYLQMNSLRAEDTAVYYCARGALDYWGQGTLVTVSS VL: DIQMTQSPSSLSASVGDRVTITCRASQSVSSAVAWYQQKPGKAPKLLIYSASSLYSGVPSRFSGSRSGTDFTLTISSLQPEDFATYYCQQWYAFGALITFGQGTKVEIK | 10.84 | 26.56
+ | + | − | − | − | − | − | Fab-2907: anti-FZD5 Fab with antibody variable region Fv-2907; CDR SEQ ID NOs: 35, 36, 46, 85, 122, 159 (antibody, V domains shown) VH: EVQLVESGGGLVQPGGSLRLSCAASGFNIYSSYMHWVRQAPGKGLEWVASISSYSGSTYYADSVKGRFTISADTSKNTAYLQMNSLRAEDTAVYYCARSSWGAYIVSYGFDYWGQGTLVTVSS VL: DIQMTQSPSSLSASVGDRVTITCRASQSVSSAVAWYQQKPGKAPKLLIYSASSLYSGVPSRFSGSRSGTDFTLTISSLQPEDFATYYCQQVGYWWGLITFGQGTKVEIK | 10.02 | 8.52
++ | + | − | − | − | − | − | Fab-2903: anti-FZD5 Fab with antibody variable region Fv-2903; CDR SEQ ID NOs: 35, 36, 42, 81, 118, 155 (antibody, V domains shown) VH: EVQLVESGGGLVQPGGSLRLSCAASGFNLSYYYIHWVRQAPGKGLEWVASIYPYSSYTSYADSVKGRFTISADTSKNTAYLQMNSLRAEDTAVYYCARGAIDYWGQGTLVTVSS VL: DIQMTQSPSSLSASVGDRVTITCRASQSVSSAVAWYQQKPGKAPKLLIYSASSLYSGVPSRFSGSRSGTDFTLTISSLQPEDFATYYCQQWGGGSSLFTFGQGTKVEIK | 4.49 | 8.52
